From US20020115110A1 (GlaxoSmithKline, published 2002)

T1: TR1Fc (human, UniProt O00300 22-401, limits assumed)
T1 construct: also called TR1 Fc fusion protein; TR1 (osteoprotegerin, OPG) fused to hinge-CH2-CH3 of human IgG1
T1 sequence: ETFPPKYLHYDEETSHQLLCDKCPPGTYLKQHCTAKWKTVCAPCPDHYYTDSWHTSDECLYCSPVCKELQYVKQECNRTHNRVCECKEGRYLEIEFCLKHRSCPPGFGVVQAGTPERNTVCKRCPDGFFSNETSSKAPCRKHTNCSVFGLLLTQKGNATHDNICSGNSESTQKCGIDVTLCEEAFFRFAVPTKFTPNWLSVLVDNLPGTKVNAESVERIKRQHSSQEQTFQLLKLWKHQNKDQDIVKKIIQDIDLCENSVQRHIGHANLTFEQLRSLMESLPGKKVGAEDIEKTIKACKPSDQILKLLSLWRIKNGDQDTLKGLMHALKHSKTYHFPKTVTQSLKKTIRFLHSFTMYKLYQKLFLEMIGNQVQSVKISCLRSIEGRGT


Tests used:
TR1Fc = target: T1, TR1Fc; experiment: SPR (BIAcore 2000), Fc fusion captured on immobilized protein A, ligand injected
Description: (§1) Surface plasmon resonance. Protein A was immobilized on to a research grade carboxymethyldextran chip (CM5) using amin coupling procedures described previously (4). Flow cell 1 was activated with NHS/EDC for 5 min. Protein A was injected a a concentration of 1 ug/ml in NaOAc buffer (10 mM, pH 5.0) until 1000RUs of protein were coupled. Remaining activated groups were blocked with a 7 min injection of 1M ethanolamine. A control surface was created by repeating the coupling procedure in a flow cell2 without incorporating protein A. In a BIAcore 2000 biosensor (BIAcore Inc. Uppsala, Sweden) TR1Fc or TR2Fc were then injected at a flow rate of 100 ul/min followed by injection of TL2 or TL4, and the binding to receptor monitored by chances in surface plasmon resonance relative to the control chip. In these experiments, TR1Fc bound to TL2 but not TL4 and TR2Fc bound to TL4 but not TL2.

sTL2 = target: T2, sTL2 (Homo sapiens (Human), UniProt P50591 97-281); experiment: as above
T2 construct: also called soluble TL2; TRAIL
Description: as §1

T2 sequence (P50591 97-281): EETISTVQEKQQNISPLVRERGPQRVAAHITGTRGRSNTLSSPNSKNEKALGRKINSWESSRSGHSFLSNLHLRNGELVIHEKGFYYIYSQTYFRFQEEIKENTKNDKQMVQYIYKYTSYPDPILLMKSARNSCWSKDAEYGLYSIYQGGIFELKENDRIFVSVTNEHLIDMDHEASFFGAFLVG

Binder | binding result (TR1Fc) | binding result (sTL2)
sTL4 (ligand, not shown: small tags and cut ends, also called soluble TL4) HHHHHHSDDDDKQERRSHEVNPAAHLTGANSSLTGSGGPLLWETQLGLAFLRGLSYHDGALVVTKAGYYYIYSKVQLGGVGCPLGLASTITHGLYKRTPRYPEELELLVSQQSPCGRATSSSRVWWDSSFLGGVVHLEAGEKVVVRVLDERLVRLRDGTRSYFGAFMV | no binding | –
TR2Fc (Fc fusion, not shown: a dimerising Fc or GST, Secreted from mammalian cells as a dimer and purified on protein A. Residues 1-192 include the putative leader peptide, which is removed on secretion; also called TR2 (HVEM) extracellular domain fused to hinge-CH2-CH3 of human IgG1; product of plasmid TR2Fclink) LPFCKEDEYPVGSECCPKCSPGYRVKEACGELTGTVCEPCPPGTYIAHLNGLSKCLQCQMCDPAMGLRASRNCSRTENAVCGCSPGHFCIVQDGDHCAACRAYATSSPGQRVQKGGTESQDTLCQNCPPGTFSPNGTLEECQHQTKCSWLVTKARSIEGRGT | – | no binding
